# Assay results taken from paper PMC9602519, “A Novel Cryptic Clostridial Peptide That Kills Bacteria by a Cell Membrane Permeabilization Mechanism” (Microbiology Spectrum, 2022).
# B1: Intestinalin (P30) (peptide)
# peptide: KNLLRRIRRKLRNKFSRSDVIKTPKIVEVN
# notes: N-terminal region of the LysC autolysin of Clostridium intestinale URNW
# Biological target: the molecule itself
# Assay: AUC; sedimentation velocity, 50,000 rpm, 20°C, absorbance at 230 nm; 10 mM sodium bicarbonate, 5 mM sodium phosphate (pH 6.8), 100 mM NaCl; with 20 mM DPC detergent (membrane mimic); c(s) distribution in SEDFIT
protein,measurement,value
B1,stoichiometry N,3
